Assay results from US20100021899 (NATIONAL UNIVERSITY CORPORATION TOKYO UNIVERSITY OF …, published 2010).

Target: BSA (bovine serum albumin) (Bos taurus, UniProt P02769 P02769:25-607)
Experiment: ELONA; plate assay on immobilized CaDNA-3-11T; no concentration-dependent signal with BSA; PBS-T, room temperature
Settings: structure-switching stem-loop

BSA (bovine serum albumin), sequence (P02769 25-607, one chain of several): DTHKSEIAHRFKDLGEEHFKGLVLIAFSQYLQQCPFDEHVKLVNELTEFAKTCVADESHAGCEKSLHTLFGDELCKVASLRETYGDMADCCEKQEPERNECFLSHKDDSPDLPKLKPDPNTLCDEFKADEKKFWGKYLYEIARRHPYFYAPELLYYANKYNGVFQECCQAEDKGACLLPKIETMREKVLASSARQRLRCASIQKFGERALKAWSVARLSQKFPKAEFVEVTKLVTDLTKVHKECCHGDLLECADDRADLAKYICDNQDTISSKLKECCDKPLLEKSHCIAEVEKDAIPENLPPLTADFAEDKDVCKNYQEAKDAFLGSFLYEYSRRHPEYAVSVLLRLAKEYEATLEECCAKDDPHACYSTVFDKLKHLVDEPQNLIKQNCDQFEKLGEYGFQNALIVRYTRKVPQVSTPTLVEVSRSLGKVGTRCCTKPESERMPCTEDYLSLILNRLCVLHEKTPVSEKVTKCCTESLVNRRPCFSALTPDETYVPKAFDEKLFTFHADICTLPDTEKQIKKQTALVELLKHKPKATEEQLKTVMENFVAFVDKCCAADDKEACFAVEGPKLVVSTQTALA

B1: CaAp-3 (ssDNA)
DNA: GTTCGGCACTTGGGCCCTTTTCTGTGTCTTTCTGTGCCCTTAGATAGTATGTGCAATCA
Q: Does B1 bind?
A: no binding
